Results from publication PMC10681739, “High-throughput data and modeling reveal insights into the mechanisms of cooperative DNA-binding by transcription factor proteins”.

Target: ETS1:RUNX1 (Homo sapiens, UniProt P14921;Q01196 full;full)
Experiment: gcPBM; 1 nM ETS1 + 25 nM RUNX1, anti-ETS1 signal, normalised
Settings: tags: N-terminal GST (pDEST15), kept (PMC6008103); copies: 1;1; label: surface-attached array probe

Chain of ETS1:RUNX1 (P14921 whole entry, chain 1 of 2): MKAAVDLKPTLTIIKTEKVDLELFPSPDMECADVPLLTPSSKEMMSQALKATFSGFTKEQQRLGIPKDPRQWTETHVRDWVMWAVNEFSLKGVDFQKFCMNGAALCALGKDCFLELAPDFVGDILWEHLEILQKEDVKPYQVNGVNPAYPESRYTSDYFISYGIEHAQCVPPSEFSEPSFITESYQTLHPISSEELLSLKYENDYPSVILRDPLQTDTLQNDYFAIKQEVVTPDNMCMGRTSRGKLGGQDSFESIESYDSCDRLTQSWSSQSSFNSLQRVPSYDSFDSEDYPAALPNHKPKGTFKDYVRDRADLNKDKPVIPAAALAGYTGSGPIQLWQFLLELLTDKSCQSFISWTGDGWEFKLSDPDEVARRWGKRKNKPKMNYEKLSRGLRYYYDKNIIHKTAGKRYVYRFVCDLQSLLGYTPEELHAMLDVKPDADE
Chain of ETS1:RUNX1 (Q01196 whole entry, chain 2 of 2): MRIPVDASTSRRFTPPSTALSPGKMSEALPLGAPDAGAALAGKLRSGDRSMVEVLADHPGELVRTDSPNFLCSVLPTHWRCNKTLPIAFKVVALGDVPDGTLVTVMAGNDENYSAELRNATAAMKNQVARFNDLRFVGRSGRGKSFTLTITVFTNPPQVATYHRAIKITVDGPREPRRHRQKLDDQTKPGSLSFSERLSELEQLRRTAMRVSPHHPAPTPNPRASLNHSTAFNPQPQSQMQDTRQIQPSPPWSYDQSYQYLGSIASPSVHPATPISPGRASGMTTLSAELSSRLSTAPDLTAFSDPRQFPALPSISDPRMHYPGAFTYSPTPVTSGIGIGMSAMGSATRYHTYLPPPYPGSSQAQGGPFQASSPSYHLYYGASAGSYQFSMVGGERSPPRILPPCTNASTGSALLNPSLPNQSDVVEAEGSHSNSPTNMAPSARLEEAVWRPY

B1: Table S2 A row 930 (dsDNA)
DNA 1: AGCTCCACCGGAAACGGCCTGGCCGCAGCCAATCAG
DNA 2: CTGATTGGCTGCGGCCAGGCCGTTTCCGGTGGAGCT
binding signal: 16700 PBM fluorescence, median of replicate spots

B2: Table S2 A row 92 (dsDNA)
DNA 1: GTCCCCGTAACAGGATGTGGTGAGCTGTTATACCAC
DNA 2: GTGGTATAACAGCTCACCACATCCTGTTACGGGGAC
binding signal: 19700 PBM fluorescence, median of replicate spots

B3: Table S2 A row 483 (dsDNA)
DNA 1: AACCAAACAGCCACAGGAAGTGGTTTCTGTGATTCA
DNA 2: TGAATCACAGAAACCACTTCCTGTGGCTGTTTGGTT
binding signal: 16800 PBM fluorescence, median of replicate spots

B4: Table S2 A row 1753 (dsDNA)
DNA 1: TGAAGCAGGCGGAAGTGCTGTGGTTTCTGGCGACTG
DNA 2: CAGTCGCCAGAAACCACAGCACTTCCGCCTGCTTCA
binding signal: 15300 PBM fluorescence, median of replicate spots

B5: Table S2 A row 223 (dsDNA)
DNA 1: AGGGAACAGGAAATGCAAAAAACCACAAGGGACAAG
DNA 2: CTTGTCCCTTGTGGTTTTTTGCATTTCCTGTTCCCT
binding signal: 18100 PBM fluorescence, median of replicate spots

B6: Table S2 A row 1206 (dsDNA)
DNA 1: TTGATTGGAGCAGGATGTGGTCAGAACAGTATGCAG
DNA 2: CTGCATACTGTTCTGACCACATCCTGCTCCAATCAA
binding signal: 23200 PBM fluorescence, median of replicate spots

B7: Table S2 A row 1758 (dsDNA)
DNA 1: GCTGATAGAACAGGATGTGGTAAAGAAGCAGGCCAA
DNA 2: TTGGCCTGCTTCTTTACCACATCCTGTTCTATCAGC
binding signal: 24600 PBM fluorescence, median of replicate spots

B8: Table S2 A row 1136 (dsDNA)
DNA 1: CCCGCTCACGCCGGAAGTGGTTTGCGTTTTCAAGAT
DNA 2: ATCTTGAAAACGCAAACCACTTCCGGCGTGAGCGGG
binding signal: 22300 PBM fluorescence, median of replicate spots

B9: Table S2 A row 978 (dsDNA)
DNA 1: ACTGAACAAACCGGATGTGGTTGCCACCTGCAATCT
DNA 2: AGATTGCAGGTGGCAACCACATCCGGTTTGTTCAGT
binding signal: 38500 PBM fluorescence, median of replicate spots

B10: Table S2 A row 966 (dsDNA)
DNA 1: GGCCTTCATTACACAGGATGCGGTTGAAATGCATCA
DNA 2: TGATGCATTTCAACCGCATCCTGTGTAATGAAGGCC
binding signal: 18400 PBM fluorescence, median of replicate spots

B11: Table S2 A row 466 (dsDNA)
DNA 1: GTGCTAGGACACAGGAAGCGATACCACAAAGAACAT
DNA 2: ATGTTCTTTGTGGTATCGCTTCCTGTGTCCTAGCAC
binding signal: 19800 PBM fluorescence, median of replicate spots

B12: Table S2 A row 1401 (dsDNA)
DNA 1: GCATTTACGGGCAGGAAATGAAACCACAGAGTACAA
DNA 2: TTGTACTCTGTGGTTTCATTTCCTGCCCGTAAATGC
binding signal: 36500 PBM fluorescence, median of replicate spots

B13: Table S2 A row 987 (dsDNA)
DNA 1: TGGGCAGGAAGTGGTATCTGATTGTGGTTTTGATTT
DNA 2: AAATCAAAACCACAATCAGATACCACTTCCTGCCCA
binding signal: 25700 PBM fluorescence, median of replicate spots

B14: Table S2 A row 649 (dsDNA)
DNA 1: TCTGTCGTCCCACTTCCTGCTGCGGTTTCCACCTCG
DNA 2: CGAGGTGGAAACCGCAGCAGGAAGTGGGACGACAGA
binding signal: 14900 PBM fluorescence, median of replicate spots

B15: Table S2 A row 644 (dsDNA)
DNA 1: GCCGGCGGCCGGAAGTCTATCCCGCAGAAGCGCAGC
DNA 2: GCTGCGCTTCTGCGGGATAGACTTCCGGCCGCCGGC
binding signal: 19100 PBM fluorescence, median of replicate spots

B16: Table S2 A row 964 (dsDNA)
DNA 1: AATCTGAAACAGGAAATAAGTCTGTGGTTGTGTGTT
DNA 2: AACACACAACCACAGACTTATTTCCTGTTTCAGATT
binding signal: 23600 PBM fluorescence, median of replicate spots

B17: Table S2 A row 1210 (dsDNA)
DNA 1: CGGGAGGGGCAGGAAGCGGACTGCGGTGGGGAAGGG
DNA 2: CCCTTCCCCACCGCAGTCCGCTTCCTGCCCCTCCCG
binding signal: 16400 PBM fluorescence, median of replicate spots

B18: Table S2 A row 397 (dsDNA)
DNA 1: AGGGGAGGAACCAGGAAGTTGTGGTAAACTGTAGCA
DNA 2: TGCTACAGTTTACCACAACTTCCTGGTTCCTCCCCT
binding signal: 15800 PBM fluorescence, median of replicate spots

B19: Table S2 A row 280 (dsDNA)
DNA 1: CCTGCAGCAACAGGATGTGGTTTGAAAGGATGAAAG
DNA 2: CTTTCATCCTTTCAAACCACATCCTGTTGCTGCAGG
binding signal: 32100 PBM fluorescence, median of replicate spots

B20: Table S2 A row 270 (dsDNA)
DNA 1: CTCATTGACAGGAAGTCTAACCACAGGCTTAGGCCC
DNA 2: GGGCCTAAGCCTGTGGTTAGACTTCCTGTCAATGAG
binding signal: 29200 PBM fluorescence, median of replicate spots

B21: Table S2 A row 553 (dsDNA)
DNA 1: CCTTGCAGCAACGGATGTGGGTTTTTTTTTTTCTTT
DNA 2: AAAGAAAAAAAAAAACCCACATCCGTTGCTGCAAGG
binding signal: 17200 PBM fluorescence, median of replicate spots

B22: Table S2 A row 166 (dsDNA)
DNA 1: GATATGGCAGGAAGTAGGGCCTGGAAACCGCACGGC
DNA 2: GCCGTGCGGTTTCCAGGCCCTACTTCCTGCCATATC
binding signal: 25500 PBM fluorescence, median of replicate spots

B23: Table S2 A row 167 (dsDNA)
DNA 1: GACAATGAGCGCACAGGATGTGGTTTGGCGGCAGGG
DNA 2: CCCTGCCGCCAAACCACATCCTGTGCGCTCATTGTC
binding signal: 33400 PBM fluorescence, median of replicate spots

B24: Table S2 A row 1146 (dsDNA)
DNA 1: GACACAAGCCTCACAGGATGTGGTCAAAGAAGGTTG
DNA 2: CAACCTTCTTTGACCACATCCTGTGAGGCTTGTGTC
binding signal: 20600 PBM fluorescence, median of replicate spots

B25: Table S2 A row 1759 (dsDNA)
DNA 1: CCTGTTGATAAAACAGGATGTGGTAAAGAAGCTGGC
DNA 2: GCCAGCTTCTTTACCACATCCTGTTTTATCAACAGG
binding signal: 43300 PBM fluorescence, median of replicate spots

B26: Table S2 A row 443 (dsDNA)
DNA 1: CCATGCACAACAGGATGTGGTTAGACAGTCAAAATT
DNA 2: AATTTTGACTGTCTAACCACATCCTGTTGTGCATGG
binding signal: 29600 PBM fluorescence, median of replicate spots

B27: Table S2 A row 327 (dsDNA)
DNA 1: AATTGAGACAGGAAATGTTGGTTTGTGGTCAGGCAC
DNA 2: GTGCCTGACCACAAACCAACATTTCCTGTCTCAATT
binding signal: 28000 PBM fluorescence, median of replicate spots

B28: Table S2 A row 435 (dsDNA)
DNA 1: GACACAAGAACAGCAGGATGTGGTCAGAGGCGTCGT
DNA 2: ACGACGCCTCTGACCACATCCTGCTGTTCTTGTGTC
binding signal: 17700 PBM fluorescence, median of replicate spots

B29: Table S2 A row 1142 (dsDNA)
DNA 1: ACAATAACAGGAAGTGGTGGGGACTGCGGTGACCTG
DNA 2: CAGGTCACCGCAGTCCCCACCACTTCCTGTTATTGT
binding signal: 16500 PBM fluorescence, median of replicate spots

B30: Table S2 A row 338 (dsDNA)
DNA 1: GCCCAGGGCGGCCGGAAGTTTGCGGGGCGGGGCGGA
DNA 2: TCCGCCCCGCCCCGCAAACTTCCGGCCGCCCTGGGC
binding signal: 16100 PBM fluorescence, median of replicate spots

B31: Table S2 A row 393 (dsDNA)
DNA 1: CTGACGCATTTCCGGCCTTTGCGGTTGATCGGTCAT
DNA 2: ATGACCGATCAACCGCAAAGGCCGGAAATGCGTCAG
binding signal: 30800 PBM fluorescence, median of replicate spots

B32: Table S2 A row 1217 (dsDNA)
DNA 1: TGGGGGATGGCAGCAGGATGTGGTTATCTCAGAAAG
DNA 2: CTTTCTGAGATAACCACATCCTGCTGCCATCCCCCA
binding signal: 29000 PBM fluorescence, median of replicate spots
